Here are results for eleven molecules from publication PMC8752837 (2022).

To fix the notation:
B1: WT BID BH3 peptide (peptide)
chain: Ac-EDIIRNIARHLAQVGDSMDRSI-NH2
B2: Y(3) BID BH3 peptide (peptide)
chain: Ac-EDIIRNIARHLAQYGDSMDRSI-NH2
B3: W(3) BID BH3 peptide (peptide)
chain: Ac-EDIIRNIARHLAQWGDSMDRSI-NH2
B4: Y(4) BID BH3 peptide (peptide)
chain: Ac-EDIIRNIARHLAQVGDSYDRSI-NH2
B5: M(3) BID BH3 peptide (peptide)
chain: Ac-EDIIRNIARHLAQMGDSMDRSI-NH2
B6: F(4) BID BH3 peptide (peptide)
chain: Ac-EDIIRNIARHLAQVGDSFDRSI-NH2
B7: W(0) BID BH3 peptide (peptide)
chain: Ac-EDIWRNIARHLAQVGDSMDRSI-NH2
B8: W(5) BID BH3 peptide (peptide)
chain: Ac-EDIIRNIARHLAQVGDSMDRSW-NH2
B9: W(4) BID BH3 peptide (peptide)
chain: Ac-EDIIRNIARHLAQVGDSWDRSI-NH2
B10: F(3) BID BH3 peptide (peptide)
chain: Ac-EDIIRNIARHLAQFGDSMDRSI-NH2
B11: W(3)W(5) BID BH3 peptide (peptide)
chain: Ac-EDIIRNIARHLAQWGDSMDRSW-NH2

One assay has as its target T1, GST-BAK (human).
T1 chain: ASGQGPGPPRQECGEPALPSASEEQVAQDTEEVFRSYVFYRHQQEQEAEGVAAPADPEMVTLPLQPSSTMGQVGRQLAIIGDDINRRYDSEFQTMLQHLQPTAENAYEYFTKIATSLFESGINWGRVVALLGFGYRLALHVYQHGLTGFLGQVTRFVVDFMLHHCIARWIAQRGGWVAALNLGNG
The assay is described as follows: FP.
In the case of B1, the IC50 (usually the midpoint of a concentration-inhibition curve) is 12.2 µM.
On the same count and under the same terms, next, B2: 6.2 µM; B3: 6.6 µM; B4: 6.9 µM.
Still for that read-out and setting: next, B5: 4.6 µM; B6: 11.9 µM; B7: 10.8 µM.
On the same count and under the same terms, then B8, with 8.8 µM; and B9, with 11.5 µM; and B10, with 11.3 µM.

The target in the next assay is T2, tevBAK (residues 22–186) (human, UniProt Q16611 22-186).
T2 chain: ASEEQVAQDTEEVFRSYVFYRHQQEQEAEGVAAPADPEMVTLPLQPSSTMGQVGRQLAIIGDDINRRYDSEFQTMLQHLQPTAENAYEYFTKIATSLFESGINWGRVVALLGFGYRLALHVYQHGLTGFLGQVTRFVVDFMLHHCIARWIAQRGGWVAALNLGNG
The assay is described as follows: ITC. In general terms: Isothermal titration calorimetry measures the heat released or taken up as one component is titrated into another.
Consider B1, for which the Kd (commonly a measure of binding affinity in units of concentration) worked out at 22.7 µM. This lies in the double-digit micromolar range.
Same read-out and setting: next, B11: 0.25 µM.
